From US20240093191A1, “COMPOSITIONS AND METHODS FOR TREATING DISEASE ASSOCIATED WITH DUX4 OVEREXPRESSION” (RESEARCH INSTITUTE AT NATIONWIDE CHILDREN'S HOSPITAL, priority 2021, published 2024)

system: DUX4 ORF (RenLuc-DUX4 ORF); test: Dual-luciferase assay, RenLuc-DUX4 ORF reporter co-transfected with miDUX4 plasmids in HEK293 cells; type: cell-based, human; set-up: increase in relative Renilla luciferase activity compared to original miDUX4 counterpart: concentration or dose not given beside the values; settings: miDUX4 with mi405F flanking sequences; normalized to miGFP
Description: Dual Luciferase Assay. (See also FIGS. 1A, 3A-B, 4A-B, 5B, and 16B-C.) This assay was performed as previously described by Wallace et al. (Mol. Ther. Methods Clin. Dev. 8: 121-30 (2018)) and following the dual-luciferase reporter assay system (Promega) protocol with some modifications. All plasmid constructs had the psiCheck2 dual luciferase reporter plasmid (Promega) as backbone that contains separate Renilla and Firefly luciferase genes, where the former contains the various target sequences used in the experiments of the disclosure, and the latter serves as a transfection normalizer (control). All DUX4 and control sequences were cloned downstream of the Renilla luciferase stop codon, serving as a 3′UTR. HEK293 cells were pre-plated 24h before transfection. Cells were then co-transfected with the luciferase DUX4 reporter and individual microRNA expression plasmids in an increasing luciferase DUX4 reporter:miRNA molar ratio using Lipofectamine 2000 (Invitrogen). Luciferase activity was measured 24h or 48h after transfection. DUX4 gene silencing was determined as previously described [Wallace et al., Mol. Ther. Methods Clin. Dev. 8: 121-30 (2018)]. Triplicate data were averaged per experiment, and individual experiments were performed 3 times. Results were reported as the average ratio of Renilla to Firefly luciferase activity±SEM for all combined experiments.
Accordingly, two new mi405 constructs, i.e., mi405F and mi405NF, were designed. […] To assess the inhibition efficiency of the three mi405 constructs, a dual-luciferase assay and western blot analysis, similar to what was described for mir-675, were carried out. In the dual-luciferase assay, U6.mi405, U6.mi405F, or U6.mi405NF was co-transfected into HEK293 cells along with the RenLuc-DUX4 ORF (a construct expressing the open reading frame of DUX4 as a 3′UTR sequence of Renilla Luciferase). 24 h after transfection, U6.mi405, U6.mi405F, and U6.mi405NF reduced the relative Renilla luciferase activity by 85±1%, 89±1%, and 66±1% (P<0.0001, ANOVA, N=3), respectively, when tested against the RenLuc-DUX4 ORF construct.

Molecule	increase in relative Renilla luciferase activity compared to original miDUX4 counterpart [%]
mi1311F: miDUX4 cloned with mi405F flanking sequences (nucleic acid, expressed or natural sequence) DNA: GCTCGAGTGAGCGAGCGGAGAACTGCCATTCTTTCCTGTAAAGCCACAGATGGGGAAAGAATGGCAGTTCTCCGCGTGCCTACTAGTAATTCTTCGATTCTGC	27±9
mi318F: miDUX4 cloned with mi405F flanking sequences (nucleic acid, expressed or natural sequence) DNA: GCTCGAGTGAGCGAGCCCTGCTCCTCCGAGCCTTTCTGAAAGCCACAGATGGGAAAGGCTCGGAGGAGCAGGGCGTGCCACTAGTAATTCTTCGATTCTGC	44±15
mi186F: miDUX4 cloned with mi405F flanking sequences (nucleic acid, expressed or natural sequence) DNA: GCTCGAGTGAGCGAGTCCAGATTTGGTTTCAGAATCTGTAAAGCCACAGATGGGATTCTGAAACCAAATCTGGACCTGCCTACTAGTAATTCTTCGATTCTGC	27±9
mi185F: miDUX4 cloned with mi405F flanking sequences (nucleic acid, expressed or natural sequence) DNA: GCTCGAGTGAGCGAGGTCCAGATTTGGTTTCAGAACTGTAAAGCCACAGATGGGTTCTGAAACCAAATCTGGACCCTGCCTACTAGTAATTCTTCGATTCTGC	160±8
mi1156F: miDUX4 cloned with mi405F flanking sequences (nucleic acid, expressed or natural sequence) DNA: GCTCGAGTGAGCGAAGGCGCAACCTCTCCTAGAAACTGAAAGCCACAGATGGGTTTCTAGGAGAGGTTGCGCCTGTGCCTACTAGTAATTCTTCGATTCTGC	34±8
mi599F: miDUX4 cloned with mi405F flanking sequences (nucleic acid, expressed or natural sequence) DNA: GCTCGAGTGAGCAGAGGCTCTCCCACAGGGGGCTTTCTGAAAGCCACAGATGGGAAAGCCCCCTGTGGGAGAGCCCTGCCTACTAGTAATTCTTCGATTCTGC	24±9
